Measurements: patent US5854388A, “Angiotensin IV peptides and receptor” (Washington State University Research Foundation, priority 1994, dated 1998)

Assays:
AT4 receptor [1] = target: T1, AT4 receptor (Bos taurus, UniProt F1N1Q8); assay: 125I-AIV binding and competition, bovine adrenal cortical membranes; settings: read-out: 125I-AIV Binding (Ki); competition
T1 sequence (F1N1Q8 1-1022): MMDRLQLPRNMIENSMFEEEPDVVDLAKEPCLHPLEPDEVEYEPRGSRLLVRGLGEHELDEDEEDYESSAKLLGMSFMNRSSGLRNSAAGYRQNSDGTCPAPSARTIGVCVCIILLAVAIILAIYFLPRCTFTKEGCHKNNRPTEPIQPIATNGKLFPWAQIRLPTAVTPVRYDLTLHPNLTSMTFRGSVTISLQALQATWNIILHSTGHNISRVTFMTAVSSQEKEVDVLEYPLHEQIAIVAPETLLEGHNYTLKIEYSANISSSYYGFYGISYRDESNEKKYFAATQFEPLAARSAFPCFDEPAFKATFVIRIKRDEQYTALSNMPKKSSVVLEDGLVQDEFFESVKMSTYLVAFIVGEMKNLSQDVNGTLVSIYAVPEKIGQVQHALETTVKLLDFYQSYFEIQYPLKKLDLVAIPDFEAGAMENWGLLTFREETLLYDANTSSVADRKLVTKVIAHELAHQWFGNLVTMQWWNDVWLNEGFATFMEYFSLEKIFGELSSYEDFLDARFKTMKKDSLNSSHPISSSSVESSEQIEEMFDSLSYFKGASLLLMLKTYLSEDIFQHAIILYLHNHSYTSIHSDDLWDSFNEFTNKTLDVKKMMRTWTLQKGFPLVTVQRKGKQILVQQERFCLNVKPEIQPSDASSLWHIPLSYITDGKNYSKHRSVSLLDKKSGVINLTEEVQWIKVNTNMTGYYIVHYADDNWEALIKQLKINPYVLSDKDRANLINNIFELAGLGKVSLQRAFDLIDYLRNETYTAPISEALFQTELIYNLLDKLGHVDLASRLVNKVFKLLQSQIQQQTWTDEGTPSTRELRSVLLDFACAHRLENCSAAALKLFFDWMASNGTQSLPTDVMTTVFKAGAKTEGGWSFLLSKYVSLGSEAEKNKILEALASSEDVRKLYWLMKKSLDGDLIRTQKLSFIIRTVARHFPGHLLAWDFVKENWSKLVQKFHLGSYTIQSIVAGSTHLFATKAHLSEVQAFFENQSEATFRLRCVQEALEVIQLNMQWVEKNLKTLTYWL

[2] = target: T2, AT1 receptor (AII receptor) (Bos taurus, UniProt P25104); type: binding, bovine; settings: 37° C., 2 h, HPLC
T2 construct: from tissue; host or cells: bovine adrenal cortex membranes
T2 sequence (P25104 1-359): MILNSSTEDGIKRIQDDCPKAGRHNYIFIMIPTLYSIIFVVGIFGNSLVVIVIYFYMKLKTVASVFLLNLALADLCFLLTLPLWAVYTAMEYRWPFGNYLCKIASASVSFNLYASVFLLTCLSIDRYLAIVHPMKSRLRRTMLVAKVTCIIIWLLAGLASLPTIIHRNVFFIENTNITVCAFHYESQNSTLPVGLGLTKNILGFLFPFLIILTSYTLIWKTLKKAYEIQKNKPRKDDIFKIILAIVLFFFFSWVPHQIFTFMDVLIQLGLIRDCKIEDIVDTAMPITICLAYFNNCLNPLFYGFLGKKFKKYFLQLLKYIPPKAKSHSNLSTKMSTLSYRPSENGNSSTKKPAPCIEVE

AT4 receptor [3] = target: T3, AT4 receptor (Oryctolagus cuniculus, UniProt G1SFU4); assay: 125I-AIV binding and competition, rabbit heart P2 membranes; settings: competition of 0.5 nM 125I-AIV, 120 min, 37° C.
T3 sequence (G1SFU4 1-1025): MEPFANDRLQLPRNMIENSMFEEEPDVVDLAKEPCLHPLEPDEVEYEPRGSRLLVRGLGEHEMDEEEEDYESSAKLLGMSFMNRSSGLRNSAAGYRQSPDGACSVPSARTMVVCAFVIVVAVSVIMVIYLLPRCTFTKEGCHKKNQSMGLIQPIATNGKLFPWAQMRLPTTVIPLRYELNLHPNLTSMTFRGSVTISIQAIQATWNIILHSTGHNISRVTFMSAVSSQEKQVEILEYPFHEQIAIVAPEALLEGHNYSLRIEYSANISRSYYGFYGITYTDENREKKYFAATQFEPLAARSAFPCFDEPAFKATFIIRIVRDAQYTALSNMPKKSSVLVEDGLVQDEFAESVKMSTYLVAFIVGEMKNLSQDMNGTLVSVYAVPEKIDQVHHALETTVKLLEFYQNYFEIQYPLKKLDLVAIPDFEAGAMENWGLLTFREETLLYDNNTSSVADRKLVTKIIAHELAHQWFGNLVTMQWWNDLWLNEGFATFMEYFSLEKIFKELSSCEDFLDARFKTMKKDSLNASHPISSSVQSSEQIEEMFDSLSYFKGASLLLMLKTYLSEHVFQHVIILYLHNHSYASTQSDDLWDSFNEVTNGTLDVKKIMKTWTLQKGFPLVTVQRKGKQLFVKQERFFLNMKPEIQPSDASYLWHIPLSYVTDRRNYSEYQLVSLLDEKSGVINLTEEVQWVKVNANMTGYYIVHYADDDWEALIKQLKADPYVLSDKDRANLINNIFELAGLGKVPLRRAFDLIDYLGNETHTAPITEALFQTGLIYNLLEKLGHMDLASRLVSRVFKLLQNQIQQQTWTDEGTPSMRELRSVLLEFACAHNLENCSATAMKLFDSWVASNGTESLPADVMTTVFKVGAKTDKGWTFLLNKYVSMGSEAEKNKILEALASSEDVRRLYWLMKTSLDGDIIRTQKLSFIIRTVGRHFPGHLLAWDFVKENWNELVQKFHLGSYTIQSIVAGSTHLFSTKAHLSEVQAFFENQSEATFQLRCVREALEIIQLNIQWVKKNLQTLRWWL

AT4 receptor [4] = target: T1, AT4 receptor; assay: 125I-AIV binding and competition, coronary venular endothelial cell (CVEC) membranes; set-up: species or system bovine; settings: competition of 0.5 nM 125I-AIV; read-out: Ki
[5] = Stability of angiotensin peptides in binding buffer (reverse phase HPLC); type: physicochemical; settings: 4 h at 37° C.
Method: Binding studies were carried out in a buffer (below) containing an extensive cocktail of inhibitors that was designed to minimize metabolism of both the receptor and the test ligand, i.e., the buffer contained 5 mM EDTA, 0.2% BSA, […] Bestatin, 50 μM Plummer's inhibitor, and 100 μM PMSF.

rats = assay: Passive avoidance conditioning after icv injection; type: in vivo, rat
[6] = in vivo; cited from earlier work
[7] = in vivo; cited from earlier work; remark: listed apart in the source

Substance: Asp1 Arg2 Val3 Tyr4 Ile5 His6 Pro7 Phe8 (DRVYIHPF) [AII]
- Ki (AT4 receptor [1]): > 1000 nM
- overall hydrolysis under conditions of the assay [2]: less than 2%
- Ki (AT4 receptor [3]): > 1000 nM
- Ki (AT4 receptor [4]): 194 ± 44.5 nM
- hydrolysis in binding buffer [5]: less than 10%
- passive avoidance latency / cognitive effect (in words) (rats): no specific effect
- half-lives [6]: 4.4 min
- metabolized during transit through the kidney [7]: 72-76%
